From US20170015758A1

Legend:
PD1 (human) = PD1 (human) (UniProt Q15116); experiment: cell-based or functional assay
PD-L1 (human) = PD-L1 (human) (UniProt Q9NZQ7); experiment: cell-based or functional assay
Chain of UniProt Q9NZQ7 (Q9NZQ7 19-290): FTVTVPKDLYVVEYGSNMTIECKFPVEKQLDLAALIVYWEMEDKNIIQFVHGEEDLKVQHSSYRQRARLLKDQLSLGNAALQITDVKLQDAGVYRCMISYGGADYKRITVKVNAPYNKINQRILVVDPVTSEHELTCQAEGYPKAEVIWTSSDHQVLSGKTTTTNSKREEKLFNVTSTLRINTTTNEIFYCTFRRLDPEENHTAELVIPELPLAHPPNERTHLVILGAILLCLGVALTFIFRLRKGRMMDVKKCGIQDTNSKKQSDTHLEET

Chain of UniProt Q15116 (Q15116 25-288): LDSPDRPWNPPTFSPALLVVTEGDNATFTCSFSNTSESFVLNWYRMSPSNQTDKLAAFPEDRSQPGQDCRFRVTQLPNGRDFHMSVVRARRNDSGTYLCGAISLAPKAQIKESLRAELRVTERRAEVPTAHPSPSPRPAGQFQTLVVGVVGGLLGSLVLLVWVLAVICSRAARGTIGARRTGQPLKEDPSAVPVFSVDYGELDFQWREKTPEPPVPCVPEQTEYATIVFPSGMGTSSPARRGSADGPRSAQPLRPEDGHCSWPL

Anti-PD1 (clone J116) (antibody)
MEDI-565-mediated cytolysis of SW1463 with fresh T cells in the presence of anti-PD1 (PD1 (human)): 66.3% | tumor killing in second round, T cells previously incubated with MEDI-565 and tumor, anti-PD1 added (PD1 (human)): 37.1% | tumor-specific cytolytic activity, fresh T cells, PD1 inhibition alone (PD1 (human)): 49.9%

Anti-PD-L1 (clone MIH1) (antibody)
tumor-specific cytolytic activity, fresh T cells, PD-L1 inhibition alone (PD-L1 (human)): 49.9%
